Reference: patent US20190083645A1 (AbbVie / Abbott, published 2019)
Where a chain is given by its changes, count along the chain named.

T1: human CLDN6 (human, UniProt P56747 1-220)
T1 sequence: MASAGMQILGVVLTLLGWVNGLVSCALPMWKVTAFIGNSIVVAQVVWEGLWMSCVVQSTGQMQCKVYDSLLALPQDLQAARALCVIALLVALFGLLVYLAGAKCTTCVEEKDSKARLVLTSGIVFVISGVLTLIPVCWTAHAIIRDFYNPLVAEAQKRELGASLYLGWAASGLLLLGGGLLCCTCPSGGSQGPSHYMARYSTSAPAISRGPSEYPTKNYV

T2: human CLDN9 (human, UniProt O95484 1-217)
T2 sequence: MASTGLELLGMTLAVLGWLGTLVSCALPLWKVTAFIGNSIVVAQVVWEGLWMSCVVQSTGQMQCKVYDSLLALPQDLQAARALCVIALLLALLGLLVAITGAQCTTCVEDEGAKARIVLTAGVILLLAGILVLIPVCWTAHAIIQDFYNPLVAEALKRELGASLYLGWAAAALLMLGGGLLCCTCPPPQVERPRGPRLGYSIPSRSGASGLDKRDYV

T3: human CLDN4 (human, UniProt O14493 1-209)
T3 sequence (looked up): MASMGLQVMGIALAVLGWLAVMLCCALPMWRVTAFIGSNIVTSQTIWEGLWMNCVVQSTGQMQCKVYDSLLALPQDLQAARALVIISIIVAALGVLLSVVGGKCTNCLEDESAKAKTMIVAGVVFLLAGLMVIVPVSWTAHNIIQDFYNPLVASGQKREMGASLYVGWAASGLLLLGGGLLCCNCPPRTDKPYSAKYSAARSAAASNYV

B1: SC27.103 (antibody, V domains shown)
VH: EVHLQQSGPELVKPGGSMKISCKASGYSFTGYTMNWVKQSHGKNLEWIGLFNPYNGGTSYNQKFKGKATLTVDKSSSTAYMELLSLTSEDSAVYYCARCYRYDGLDYWGQGTTLTVSS
VL: QIVLTQSPAIMSASLGERVTMTCTASSSVSSSYLHWYQQKPGSSPTLWIYRTSDLASGVPARFSGSGSGTSYSLTISSMEAEDAATYYCHQYHRSPWTFGGGTRLEIK
B2: SC27.108 (antibody, V domains shown)
VH: QVQMQQSGAELVRPGTSVKVSCKASGYAFTNYLIEWVKQRPGQGLEWIGLINPGSGGTNYNEKFKGKATLTADKSSTTAYMQLSSLTSDDSAVYFCARRSPLGSWIYYAYDGVAYWGQGTLVTVSA
VL: EIVLTQSPALMAASPGEKVTITCSVSSSISSSNLHWYQQKSGTSPKLWIYGTSNLASGVPVRFSGSGSGTSYSLTISNMEAEDAATYYCQQWSSYPHTFGGGTKLEIK
B3: SC27.201 (antibody, V domains shown)
VL: DIQMTQSSSSFSVSLGDRVTITCKASEDIYNRLAWYQQKPGNAPRLLISGATSLEAGVPSGFSGSGSGKDYTLSITSLQTEDVATYYCQQYWSTPPTFGGGTKLELK
V domain: EVQLQQSGPELVKPGASVKISCKTSGYTFTENIRHWVKQSRGKSLEWIGTINPNNGETRYNQKFKGKATLTVDKSSSTAYMELRSLTSEDSAVYYCTRGITKSPYGMDYWGQGTSITVSS
B4: SC27.204 (antibody, V domains shown)
VH: EVKVLESGGGLVQPGGSLKLSCAASGFDFSRYWMSWVRQAPGKGLEWIGEINPDSSTINYTPSLKAKFIISRDNAKNTLYLQMSKVRSEDTALYYCTGPAYWGQGTLVTVSA
VL: DIVMTQSQKFMSTSVGDRVSVACKAGQNVGTSVAWYQQKPGHSPKSLIYSASYRYSGVPNRFTGSGSGTDFTLTISNVQSEDLADYFCQQYITYPYTFGGGTKLEII
B5: SC27.104 (antibody, V domains shown)
VH: EVQLQQSGPELVKPGASVKISCKTSGYTFTEYTVHWVKQSHGKSLEWIGGVYPKNGDTTYNQKFRGKATLTVDKSSNTAYMELRSLTSEDSAVYYCTGKDGYDGFAYWGQGTLVTVSA
VL: B3 VL with A56T, G61R, T94N, L106I
B6: SC27.105 (antibody, V domains shown)
VH: EVQLQQSGPELVKPGASVKISCKASGYSFTGYYMNWVKQSPEKSLEWIGEINPSTGSTTYNQKFKAKATLTVDKSSSTAYMQLKSLTSEDSAVYYCARRDYYYGSGFYAMDYWGQGTSVTVSS
VL: DVQMTQSPSSLSASLGERVSLTCQASQSVSNNLNWYQQTPGKAPRLLIYGASKLEDGVSSRFSGTGYGTDFTFTISSLEEEDVATYFCLQHRYLWTFGGGTKLEIK

Target: T1, human CLDN6
Assay: cell-based or functional assay

Row | Binder | apparent IC50, killing of HEK293T cells overexpressing hCLDN6 with anti-mouse Fab-saporin, CellTiter-Glo [nM]
1 | B1 | 57.7
2 | B2 | 102
3 | B3 | 48.2
4 | B4 | 25.2
5 | B5 | 284
6 | B6 | 235

Target: T2, human CLDN9
Assay: cell-based or functional assay

Row | Binder | apparent IC50, killing of HEK293T cells overexpressing hCLDN9 with anti-mouse Fab-saporin, CellTiter-Glo [nM]
7 | B1 | 466
8 | B2 | > 2000
9 | B3 | 155
10 | B4 | 16.9
11 | B5 | > 2000
12 | B6 | > 2000

Target: T3, human CLDN4
Assay: cell-based or functional assay

Row | Binder | apparent IC50, killing of HEK293T cells overexpressing hCLDN4 with anti-mouse Fab-saporin, CellTiter-Glo [nM]
13 | B1 | > 2000
14 | B2 | > 2000
15 | B3 | 69.7
16 | B4 | > 2000
17 | B5 | 969
18 | B6 | > 2000
